The labels stand for the following.
B1: KN motif and ankyrin repeat domain-containing protein 1 (Homo sapiens), Q14678-2 (parent)
chain: METRRRLEQERATMQMTPGEFRRPRLASFGGMGTTSSLPSFVGSGNHNPAKHQLQNGYQGNGDYGSYAPAAPTTSSMGSSIRHSPLSSGISTPVTNVSPMHLQHIREQMAIALKRLKELEEQVRTIPVLQVKISVLQEEKRQLVSQLKNQRAASQINVCGVRKRSYSAGNASQLEQLSRARRSGGELYIDYEEEEMETVEQSTQRIKEFRQLTADMQALEQKIQDSSCEASSELRENGECRSVAVGAEENMNDIVVYHRGSRSCKDAAVGTLVEMRNCGVSVTEAMLGVMTEADKEIELQQQTIESLKEKIYRLEVQLRETTHDREMTKLKQELQAAGSRKKVDKATMAQPLVFSKVVEAVVQTRDQMVGSHMDLVDTCVGTSVETNSVGISCQPECKNKVVGPELPMNWWIVKERVEMHDRCAGRSVEMCDKSVSVEVSVCETGSNTEESVNDLTLLKTNLNLKEVRSIGCGDCSVDVTVCSPKECASRGVNTEAVSQVEAAVMAVPRTADQDTSTDLEQVHQFTNTETATLIESCTNTCLSTLDKQTSTQTVETRTVAVGEGRVKDINSSTKTRSIGVGTLLSGHSGFDRPSAVKTKESGVGQININDNYLVGLKMRTIACGPPQLTVGLTASRRSVGVGDDPVGESLENPQPQAPLGMMTGLDHYIERIQKLLAEQQTLLAENYSELAEAFGEPHSQMGSLNSQLISTLSSINSVMKSASTEELRNPDFQKTSLGKITGNYLGYTCKCGGLQSGSPLSSQTSQPEQEVGTSEGKPISSLDAFPTQEGTLSPVNLTDDQIAAGLYACTNNESTLKSIMKKKDGNKDSNGAKKNLQFVGINGGYETTSSDDSSSDESSSSESDDECDVIEYPLEEEEEEEDEDTRGMAEGHHAVNIEGLKSARVEDEMQVQECEPEKVEIRERYELSEKMLSACNLLKNTINDPKALTSKDMRFCLNTLQHEWFRVSSQKSAIPAMVGDYIAAFEAISPDVLRYVINLADGNGNTALHYSVSHSNFEIVKLLLDADVCNVDHQNKAGYTPIMLAALAAVEAEKDMRIVEELFGCGDVNAKASQAGQTALMLAVSHGRIDMVKGLLACGADVNIQDDEGSTALMCASEHGHVEIVKLLLAQPGCNGHLEDNDGSTALSIALEAGHKDIAVLLYAHVNFAKAQSPGTPRLGRKTSPGPTHRGSFD
partner: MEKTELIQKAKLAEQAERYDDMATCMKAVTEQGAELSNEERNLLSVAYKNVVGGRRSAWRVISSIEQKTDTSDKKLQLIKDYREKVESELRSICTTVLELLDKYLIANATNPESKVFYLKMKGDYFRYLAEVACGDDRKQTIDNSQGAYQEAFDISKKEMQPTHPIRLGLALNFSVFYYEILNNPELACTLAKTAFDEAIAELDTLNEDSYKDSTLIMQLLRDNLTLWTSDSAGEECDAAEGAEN
B2: KN motif and ankyrin repeat domain-containing protein 1 (Homo sapiens), Q14678-2 (parent)
chain: B1 chain
partner: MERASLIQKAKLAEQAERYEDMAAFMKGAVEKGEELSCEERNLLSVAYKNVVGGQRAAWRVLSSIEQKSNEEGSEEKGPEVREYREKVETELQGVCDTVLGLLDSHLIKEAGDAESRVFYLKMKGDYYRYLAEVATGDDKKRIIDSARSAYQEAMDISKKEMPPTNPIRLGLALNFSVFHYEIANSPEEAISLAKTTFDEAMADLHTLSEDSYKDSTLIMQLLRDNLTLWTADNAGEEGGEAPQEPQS
B3: KN motif and ankyrin repeat domain-containing protein 1 (Homo sapiens), Q14678-2 (parent)
chain: B1 chain
partner: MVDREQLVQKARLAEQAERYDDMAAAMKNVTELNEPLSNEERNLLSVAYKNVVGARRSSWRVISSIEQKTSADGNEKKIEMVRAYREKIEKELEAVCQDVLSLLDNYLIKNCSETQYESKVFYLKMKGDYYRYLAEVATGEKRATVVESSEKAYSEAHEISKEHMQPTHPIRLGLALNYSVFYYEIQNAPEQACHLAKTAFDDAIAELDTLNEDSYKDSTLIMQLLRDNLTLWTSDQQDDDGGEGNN
B4: KN motif and ankyrin repeat domain-containing protein 1 (Homo sapiens), Q14678-2 (parent)
chain: B1 chain
partner: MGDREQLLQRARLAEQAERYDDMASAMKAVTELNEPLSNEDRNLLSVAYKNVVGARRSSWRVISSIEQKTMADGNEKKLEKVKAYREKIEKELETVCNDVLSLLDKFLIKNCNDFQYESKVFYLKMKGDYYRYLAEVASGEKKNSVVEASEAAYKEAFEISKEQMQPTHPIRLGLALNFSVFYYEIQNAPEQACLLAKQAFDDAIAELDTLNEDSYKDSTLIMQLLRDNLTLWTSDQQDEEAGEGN
B5: KN motif and ankyrin repeat domain-containing protein 1 (Homo sapiens), Q14678-2 (parent)
chain: B1 chain

Variants of B1 are the subject of the first assay. The conditions noted are these: with 1433t_human YWHAQ.
Take S167A: the “effect of a mutation on the interaction” value is given as “disrupting interaction”.

Variants of B2 are the subject of a further assay. The conditions noted are these: with 1433s_human SFN.
As for S167A, the “effect of a mutation on the interaction” value is given as “disrupting interaction”.

Another assay covers variants of B3. The conditions noted are these: with 1433g_human YWHAG.
Take S167A: the “effect of a mutation on the interaction” value was “disrupting interaction”.

Another assay covers variants of B4. The conditions noted are these: with 1433f_human YWHAH.
For S167A, the “effect of a mutation on the interaction” value is “disrupting interaction”.

Another assay covers variants of B5. The conditions noted are these: with 1433z_human YWHAZ.
Take S167A: the “effect of a mutation on the interaction” value is listed as “disrupting interaction”.

Another assay covers variants of B5. The following applies: with 1433e_human YWHAE.
As to S167A, the “effect of a mutation on the interaction” value is on record as “disrupting interaction”.

The variants in the next assay derive from B5. The conditions noted are these: with 1433b_human YWHAB.
As for S167A, the “effect of a mutation on the interaction” value was “disrupting interaction”.

Values taken from IntAct's records for PubMed 18458160.
